± gives the uncertainty stated by the source.

This data set is described as follows: self-splicing fitness, log relative to wild type (ln ratio); higher = more splicing; Tetrahymena group I intron in knt gene, E. coli kanamycin selection, DiMSum; sequences stand for … in CUCUCU…GGAGGGAAAAGUUAUCAGGCAUGCACCUGGUAGCUAGUCUUUAAACCAAUAGAUUGCAUCGGUUUAAAAGGCAAGACCGUCAAAUUGCGGGAAAGGGGUCAACAGCCGUUCAGUACCAAGUCUCAGGGGAAACUUUGAGAUGGCCUUGCAAAGGGUAUGGUAAUAAGCUGACGGACAUGGUCCUAACCACGCAGCCAAGUCCUAAGUCAACAGAUCUUCUGUUGAUAUGGAUGCAGUUCACAGACUAAAUGUCGGUCGGGGAAGAUGUAUUCUUCUCAUAAGAUAUAGUCGGACCUCUCCUUAAUGGGAGCUAGCGGAUGAAGUGAUGCAACACUGGAGCCGCUGGGAACUAAUUUGUAUGCGAAAGUAUAUUGAUUAGUUUUGGAGUACUCGUGGUCG
Put shortly: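 Fitness was computed with DiMSum as the error-weighted combination of replicate fold changes, kanamycin versus none, each normalised to wild type. The library randomised all eight intron nucleotides of the P1ex region, with the intron placed in the knt kanamycin-resistance gene on pET-22b(+) in E. coli BL21(DE3). Six replicate transformations were grown overnight at 37°C or 30°C on LB agar with or without 25 μg/mL kanamycin, plus 100 μg/mL carbenicillin, 50 μM IPTG and 0.2% rhamnose. Pooled colonies were amplicon-sequenced on an Illumina HiSeq 2500.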

As to UCAGAGCAAUAUUACGCCGU, where the note is “37 °C”, the “self-splicing fitness (ln)” value was -3.02 ± 0.43.

As for UCAGAGCAAUAUUACGCGGA, the “self-splicing fitness (ln)” value is, setting by setting: (30 °C) -2.96 ± 0.33; (37 °C) -1.64 ± 0.17. Regarding UCAGAGCAAUAUUACGCUAG, the “self-splicing fitness (ln)” value runs as follows: (30 °C) -2.4 ± 0.12; (37 °C) -2.95 ± 0.28. With UCAGAGCAAUAUUACGGAUA, the “self-splicing fitness (ln)” value (30 °C) is -2.81 ± 0.3. Regarding UCAGAGCAAUAUUACGGCCA, the “self-splicing fitness (ln)” value is, setting by setting: (30 °C) -2.1 ± 0.27; (37 °C) -2.17 ± 0.32. For UCAGAGCAAUAUUACGGGUU, the “self-splicing fitness (ln)” value (30 °C) was -3.76 ± 0.46 and the “self-splicing fitness (ln)” value (37 °C) is -1.58 ± 0.26. Take UCAGAGCAAUAUUACGUAGG: the “self-splicing fitness (ln)” value (30 °C) is -0.836 ± 0.12 and the “self-splicing fitness (ln)” value (37 °C) was -0.744 ± 0.17.

Turning to UCAGAGCAAUAUUACGUAUG, the “self-splicing fitness (ln)” value is -2.12 ± 0.23 (30 °C) and -2.37 ± 0.31 (37 °C). UCAGAGCAAUAUUACGUGCC: for the setting “30 °C”, the “self-splicing fitness (ln)” value is -2.62 ± 0.41. Turning to UCAGAGCAAUAUUACGUGCG, the “self-splicing fitness (ln)” value (30 °C) is -2.9 ± 0.23 and the “self-splicing fitness (ln)” value (37 °C) is -0.826 ± 0.16. On to UCAGAGCAAUAUUACGUGUG, for which the “self-splicing fitness (ln)” value by setting is: (30 °C) -2.67 ± 0.13; (37 °C) -2.53 ± 0.13. Consider UCAUAGCAAUAUUACGAACA, for which the “self-splicing fitness (ln)” value is -1.78 ± 0.17 (30 °C) and -0.838 ± 0.16 (37 °C). In the case of UCAUAGCAAUAUUACGACAU, the “self-splicing fitness (ln)” value (30 °C) was -4.005 ± 0.032 and the “self-splicing fitness (ln)” value (37 °C) is -2.92 ± 0.042. Turning to UCAUAGCAAUAUUACGACGC, the “self-splicing fitness (ln)” value is, setting by setting: (30 °C) -1.6 ± 0.19; (37 °C) -0.696 ± 0.21. The corresponding values for UCAUAGCAAUAUUACGACGG are -0.375 ± 0.11 and -0.184 ± 0.13. For UCAUAGCAAUAUUACGACUG, the “self-splicing fitness (ln)” value (30 °C) was -1.04 ± 0.1 and the “self-splicing fitness (ln)” value (37 °C) was -0.379 ± 0.14. As for UCAUAGCAAUAUUACGAUAC, the “self-splicing fitness (ln)” value (30 °C) was -3.23 ± 0.38. Regarding UCAUAGCAAUAUUACGAUAU, the “self-splicing fitness (ln)” value was -3.76 ± 0.32 (30 °C) and -2.4 ± 0.29 (37 °C). As to UCAUAGCAAUAUUACGAUCG, the “self-splicing fitness (ln)” value reads like this: (30 °C) -0.885 ± 0.09; (37 °C) -0.426 ± 0.12. As for UCAUAGCAAUAUUACGAUGC, the “self-splicing fitness (ln)” value reads like this: (30 °C) -1.49 ± 0.14; (37 °C) -1.43 ± 0.14. In the case of UCAUAGCAAUAUUACGAUUU, the “self-splicing fitness (ln)” value is -3.45 ± 0.22 (30 °C) and -2.24 ± 0.22 (37 °C). In the case of UCAUAGCAAUAUUACGCAAU, the “self-splicing fitness (ln)” value is -3.1 ± 0.19 (30 °C) and -2.84 ± 0.28 (37 °C). For the sequence UCAUAGCAAUAUUACGCAGA, the “self-splicing fitness (ln)” value (30 °C) was -2.93 ± 0.34 and the “self-splicing fitness (ln)” value (37 °C) is -2.7 ± 0.24. The matching figures for UCAUAGCAAUAUUACGCCAG: -1.74 ± 0.17 and -2.4 ± 0.19. As to UCAUAGCAAUAUUACGCCGC, the “self-splicing fitness (ln)” value is -3.77 ± 0.33 (30 °C) and -1.61 ± 0.41 (37 °C). Turning to UCAUAGCAAUAUUACGCUAA, the “self-splicing fitness (ln)” value is -3.23 ± 0.37 (30 °C) and -2.07 ± 0.29 (37 °C). For UCAUAGCAAUAUUACGGAAG, the “self-splicing fitness (ln)” value (37 °C) is -2.19 ± 0.33.

For UCAUAGCAAUAUUACGGCAG, the “self-splicing fitness (ln)” value is -1.31 ± 0.15 (30 °C) and -1.07 ± 0.15 (37 °C). On to UCAUAGCAAUAUUACGGGUA, for which the “self-splicing fitness (ln)” value reads like this: (30 °C) -1.8 ± 0.094; (37 °C) -1.53 ± 0.079.

In the case of UCAUAGCAAUAUUACGGUAA, the “self-splicing fitness (ln)” value reads like this: (30 °C) -2.44 ± 0.27; (37 °C) -0.618 ± 0.15.

Turning to UCAUAGCAAUAUUACGGUAG, the “self-splicing fitness (ln)” value is -3.28 ± 0.23 (30 °C) and -1.77 ± 0.17 (37 °C).

As for UCAUAGCAAUAUUACGGUCA, the “self-splicing fitness (ln)” value by setting is: (30 °C) -1.1 ± 0.16; (37 °C) -0.484 ± 0.16.

Take UCAUAGCAAUAUUACGUCGG: the “self-splicing fitness (ln)” value (30 °C) is -1.34 ± 0.12 and the “self-splicing fitness (ln)” value (37 °C) was -0.0833 ± 0.11. In the case of UCAUAGCAAUAUUACGUCGU, the “self-splicing fitness (ln)” value is, setting by setting: (30 °C) -3.88 ± 0.39; (37 °C) -1.79 ± 0.38. In the case of UCAUAGCAAUAUUACGUCUA, the “self-splicing fitness (ln)” value is -2.05 ± 0.19 (30 °C) and -0.601 ± 0.14 (37 °C). The corresponding values for UCAUAGCAAUAUUACGUGAA are -2.56 ± 0.091 and -1.61 ± 0.1. The matching figures for UCAUAGCAAUAUUACGUUGU: -4.35 ± 0.23 and -2.77 ± 0.21.

UCCAAGCAAUAUUACGAAAU: the “self-splicing fitness (ln)” value reads like this: (30 °C) -2.02 ± 0.2; (37 °C) -1.98 ± 0.21. As to UCCAAGCAAUAUUACGAAUA, the “self-splicing fitness (ln)” value (30 °C) is -2.4 ± 0.16 and the “self-splicing fitness (ln)” value (37 °C) is -1.13 ± 0.097.

These data come from the supplement of paper PMC7877785.
